Test results reported in publication PMC5464773 (2017).
Read-outs that look alike come from different tables or passages of the source.

Assays:
Assay in all cases: FP
Myc-tagged Bfl-1 [1] = molecular target: T1, Myc-tagged Bfl-1 (human, UniProt Q16548 1-175)
T1 chain: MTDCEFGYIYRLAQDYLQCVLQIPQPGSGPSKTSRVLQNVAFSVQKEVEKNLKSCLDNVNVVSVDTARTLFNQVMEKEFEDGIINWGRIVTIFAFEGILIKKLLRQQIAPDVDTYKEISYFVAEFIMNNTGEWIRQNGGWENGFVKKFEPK

Myc-tagged Bcl-w = molecular target: T2, Myc-tagged Bcl-w (human, UniProt Q92843 1-193)
T2 chain: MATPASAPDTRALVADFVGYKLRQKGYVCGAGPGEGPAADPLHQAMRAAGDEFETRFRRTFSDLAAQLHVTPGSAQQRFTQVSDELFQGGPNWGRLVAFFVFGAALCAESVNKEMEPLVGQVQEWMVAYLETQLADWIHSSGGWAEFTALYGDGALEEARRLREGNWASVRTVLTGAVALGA

Myc-tagged Mcl-1 = molecular target: T3, Myc-tagged Mcl-1 (human, UniProt Q07820 1-350)
T3 chain: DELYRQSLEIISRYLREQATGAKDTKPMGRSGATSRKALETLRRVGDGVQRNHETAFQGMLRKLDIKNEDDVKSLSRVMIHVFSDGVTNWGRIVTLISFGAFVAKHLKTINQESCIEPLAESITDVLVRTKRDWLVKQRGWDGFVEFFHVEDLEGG

Myc-tagged Bcl-xL = Myc-tagged Bcl-xL (human, UniProt Q07817-1 1-233)
Myc-tagged Bcl-xL, sequence (Q07817 1-209): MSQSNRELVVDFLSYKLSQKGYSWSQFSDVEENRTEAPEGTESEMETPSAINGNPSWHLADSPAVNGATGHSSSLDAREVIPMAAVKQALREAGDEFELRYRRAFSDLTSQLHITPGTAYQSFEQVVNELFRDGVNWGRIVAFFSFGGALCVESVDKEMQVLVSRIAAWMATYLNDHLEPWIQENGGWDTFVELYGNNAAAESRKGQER

Myc-tagged Bcl-2 = Myc-tagged Bcl-2 (human, UniProt P10415 1-239)
Myc-tagged Bcl-2, sequence (P10415 1-211): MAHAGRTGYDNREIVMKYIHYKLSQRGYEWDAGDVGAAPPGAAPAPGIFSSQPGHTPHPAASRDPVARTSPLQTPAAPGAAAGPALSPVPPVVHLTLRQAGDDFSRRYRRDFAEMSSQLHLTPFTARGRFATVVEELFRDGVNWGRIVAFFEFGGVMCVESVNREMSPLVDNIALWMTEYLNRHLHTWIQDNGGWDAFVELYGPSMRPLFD

Myc-tagged Bfl-1 [2] = molecular target: T1, Myc-tagged Bfl-1

In the case of Ac-QWVREIAAGLRRAADDVNAQVER-NH2 (designed binder) [FS2], the Ki (Myc-tagged Bfl-1 [1]) is reported as 21 nM, the Ki (Myc-tagged Bcl-w) is reported as > 5000 nM and the Ki (Myc-tagged Mcl-1) is reported as 3200 nM. The Ki (Myc-tagged Bcl-xL) was > 5000 nM and the Ki (Myc-tagged Bcl-2) was 2400 nM.

Work on Ac-QWAREIGAGLRRAADDVNAQVER-NH2 [PUMA/FS2 chimeric peptide with the smaller residues of FS2 at positions 2g, 3d, 4a and 4e] yielded a Ki (Myc-tagged Bfl-1 [2]) of 600 nM.

Ac-QWVREIAAQLRRMADDLNAQYER-NH2 [PUMA/FS2 chimeric peptide with the larger residues of FS2 at positions 2a and 2e] showed a Ki (Myc-tagged Bfl-1 [2]) of 2.1 nM.

Work on Ac-QWAREIGAQLRRMADDLNAQYER-NH2 [PUMA BH3 peptide (23 residues)] yielded a Ki (Myc-tagged Bfl-1 [1]) of 4.8 nM, a Ki (Myc-tagged Bcl-w) of 3 nM and a Ki (Myc-tagged Mcl-1) of 2.4 nM.

Work on Ac-QWIREIAAGLRRFADILNAQVER-NH2 (designed binder) [FS3] yielded a Ki (Myc-tagged Bfl-1 [1]) of 2.1 nM, a Ki (Myc-tagged Bcl-w) of 770 nM and a Ki (Myc-tagged Mcl-1) of 550 nM. For the same binder, the Ki (Myc-tagged Bcl-xL) was 320 nM and the Ki (Myc-tagged Bcl-2) was 2000 nM.

With Ac-QWVREIAAGLRLAADNVNAQLER-NH2 (designed binder) [FS1] the Ki (Myc-tagged Bcl-w) was > 5000 nM, the Ki (Myc-tagged Mcl-1) was > 5000 nM and the Ki (Myc-tagged Bcl-xL) was 2400 nM. For the same binder, the Ki (Myc-tagged Bcl-2) was > 5000 nM.
